Laboratory results published in patent US20160274129.

T1: α-fructosyl-valyl-histidyl-leucyl-threonyl-proryl-glutamic acid
T1 chain: VHLTPE

B1: Cc95FX-62D/63H/106K/110L/113K/353S (protein)
chain: MAPSRANTSVIVVGGGGTIGSSTALHLVRSGYTPSNITVLDAYPIPSSQSAGNDLNKIMGIDHRNKVDLQLSLEARQMWREDDLFKEYFHNTGRLDCAHGEEGLAKLRQLYQKLLDANAGLEETTEWLDSEDEILKKMPLLSRDQIKGWKAVYSQDGGWLAAAKAINAIGEYLRAQGVKFGFGGAGSFKQPLLAEGVCIGVETVDGTRYYADKVVLAAGAWSPTLVELHEQCVSKAWVYGHIQLTPEEAAEYKNSPVVYNGDVGFFFEPNEHGVIKVCDEFPGFTRFKMHQPFGAKAPKRISVPRSHAKHPTDTIPDASEKSIRKAIATFLPKFTEKELFNRHLCWCTDTADSALLICEHPEWKNFVLATGDSGHSFKLLPNIGKHVVELLEGTLADDLAHAWRWRPGSGDALKSRRSAPAKDLADMPGWKHDDVVKSKL
B2: CFP-T7-H4 (protein)
chain: MTSNRADTRVIVVGGGGTIGSSTALHLVRSGYAPANITVLDTFEIPSAQSAGHDLNKIMGIALRNKVDLQMSLEARQMWKEDELFQPFFHNTGRMDCEHTPEGIEDLKKYYQALHDAGAGLEKTHAWLDNEDEILSKMPLLQRDQIQGWKAIWSQDGGWLAAAKAINAIGQFLKERGVKFGFGGAGSFKQPLFDDEGTTCIGVETADGTKYYADKVVLAAGAWSPTLVDLEDQCCSKAWVYAHIQLTPEEAAEYKGVPVVYNGEFGFFFEPDEFGVIKVCDEFPGFSRFKEHQPYGAPSPKRISVPRSHAKHPTDTYPDASEVSIKKAIATFLPRFQDKELFNRALCWCTDTADAALLMCEHPKWKNFILATGDSGHSFKILPNVGKYVVELIEGRLPEEMAYQWRWRPGGDALKSRRAAPPKDLADMPGWKHDPKL
B3: CFP-T7-H8 (protein)
chain: MTSNRADTRVIVVGGGGTIGSSTALHLVRSGYAPANITVLDTFEIPSAQSAGHDLNKIMGIDLENKVDLQMSLEARQMWKEDELFQPFFHNTGRMDCEHTPEGIEDLKKLYQALHDAGAGLEKTHAWLDNEDEILSKMPLLQRDQIQGWKAIWSQDGGWLAAAKAINAIGQFLKERGVKFGFGGAGSFKQPLFDDEGTTCIGVETADGTKYYADKVVLAAGAWSPTLVDLEDQCCSKAWVYAHIQLTPEEAAEYKGVPVVYNGEFGFFFEPDEFGVIKVCDEFPGFSRFKEHQPYGAPSPKRISVPRSHAKHPTDTYPDASEVSIKKAIATFLPRFQDKELFNRALCWCTDTADAALLMCEHPKWKNFILATGDSGHSFKILPNVGKYVVELIEGRLPEEMAYQWRWRPGGDALKSRRAAPPKDLADMPGWKHDPKL
B4: CFP-T7-H2-62Q (protein)
chain: MTSNRADTRVIVVGGGGTIGSSTALHLVRSGYAPANITVLDTFEIPSAQSAGHDLNKIMGIQLRNKVDLQMSLEARQMWKEDELFQPFFHNTGRMDCEHTPEGIEDLKKLYQALHDAGAGLEKTHAWLDNEDEILSKMPLLQRDQIQGWKAIWSQDGGWLAAAKAINAIGQFLKERGVKFGFGGAGSFKQPLFDDEGTTCIGVETADGTKYYADKVVLAAGAWSPTLVDLEDQCCSKAWVYAHIQLTPEEAAEYKGVPVVYNGEFGFFFEPDEFGVIKVCDEFPGFSRFKEHQPYGAPSPKRISVPRSHAKHPTDTYPDASEVSIKKAIATFLPRFQDKELFNRALCWCTDTADAALLMCEHPKWKNFILATGDSGHSFKILPNVGKYVVELIEGRLPEEMAYQWRWRPGGDALKSRRAAPPKDLADMPGWKHDPKL
B5: CFP-T7-H2-62E (protein)
chain: MTSNRADTRVIVVGGGGTIGSSTALHLVRSGYAPANITVLDTFEIPSAQSAGHDLNKIMGIELRNKVDLQMSLEARQMWKEDELFQPFFHNTGRMDCEHTPEGIEDLKKLYQALHDAGAGLEKTHAWLDNEDEILSKMPLLQRDQIQGWKAIWSQDGGWLAAAKAINAIGQFLKERGVKFGFGGAGSFKQPLFDDEGTTCIGVETADGTKYYADKVVLAAGAWSPTLVDLEDQCCSKAWVYAHIQLTPEEAAEYKGVPVVYNGEFGFFFEPDEFGVIKVCDEFPGFSRFKEHQPYGAPSPKRISVPRSHAKHPTDTYPDASEVSIKKAIATFLPRFQDKELFNRALCWCTDTADAALLMCEHPKWKNFILATGDSGHSFKILPNVGKYVVELIEGRLPEEMAYQWRWRPGGDALKSRRAAPPKDLADMPGWKHDPKL
B6: CFP-T7-H6 (protein)
chain: MTSNRADTRVIVVGGGGTIGSSTALHLVRSGYAPANITVLDTFEIPSAQSAGHDLNKIMGIDLRNKVDLQMSLEARQMWKEDELFQPFFHNTGRMDCEHTPEGIEDLKKLYQALHDAGAGLEKTHAWLDNEDEILSKMPLLQRDQIQGWKAIWSQDGGWLAAAKAINAIGQFLKERGVKFGFGGAGSFKQPLFDDEGTTCIGVETADGTKYYADKVVLAAGAWSPTLVDLEDQCCSKAWVYAHIQLTPEEAAEYKGVPVVYNGEFGFFFEPDEFGVIKVCDEFPGFSRFKEHQPYGAPSPKRISVPRSHAKHPTDTYPDASEVSIKKAIATFLPRFQDKELFNRALCWCTDTADAALLMCEHPKWKNFILATGDSGHSFKILPNVGKYVVELIEGRLPEEMAYQWRWRPGGDALKSRRAAPPKDLADMPGWKHDPKL
B7: CFP-T7-H7 (protein)
chain: MTSNRADTRVIVVGGGGTIGSSTALHLVRSGYAPANITVLDTFEIPSAQSAGHDLNKIMGIDLANKVDLQMSLEARQMWKEDELFQPFFHNTGRMDCEHTPEGIEDLKKLYQALHDAGAGLEKTHAWLDNEDEILSKMPLLQRDQIQGWKAIWSQDGGWLAAAKAINAIGQFLKERGVKFGFGGAGSFKQPLFDDEGTTCIGVETADGTKYYADKVVLAAGAWSPTLVDLEDQCCSKAWVYAHIQLTPEEAAEYKGVPVVYNGEFGFFFEPDEFGVIKVCDEFPGFSRFKEHQPYGAPSPKRISVPRSHAKHPTDTYPDASEVSIKKAIATFLPRFQDKELFNRALCWCTDTADAALLMCEHPKWKNFILATGDSGHSFKILPNVGKYVVELIEGRLPEEMAYQWRWRPGGDALKSRRAAPPKDLADMPGWKHDPKL
B8: CFP-T7-H2-62N (protein)
chain: MTSNRADTRVIVVGGGGTIGSSTALHLVRSGYAPANITVLDTFEIPSAQSAGHDLNKIMGINLRNKVDLQMSLEARQMWKEDELFQPFFHNTGRMDCEHTPEGIEDLKKLYQALHDAGAGLEKTHAWLDNEDEILSKMPLLQRDQIQGWKAIWSQDGGWLAAAKAINAIGQFLKERGVKFGFGGAGSFKQPLFDDEGTTCIGVETADGTKYYADKVVLAAGAWSPTLVDLEDQCCSKAWVYAHIQLTPEEAAEYKGVPVVYNGEFGFFFEPDEFGVIKVCDEFPGFSRFKEHQPYGAPSPKRISVPRSHAKHPTDTYPDASEVSIKKAIATFLPRFQDKELFNRALCWCTDTADAALLMCEHPKWKNFILATGDSGHSFKILPNVGKYVVELIEGRLPEEMAYQWRWRPGGDALKSRRAAPPKDLADMPGWKHDPKL

Biological target: T1, α-fructosyl-valyl-histidyl-leucyl-threon …

Q: Which results are given for B1?
A: αF6P oxidation activity (crude enzyme; αFVH oxidation activity = 100) (relative (αFVH = 100)): 237; αF6P/αFV: 0.0144; αF6P/αFVH: 2.37

Q: Which αF6P oxidation activity (crude enzyme; αFVH oxidation activity = 100) (relative (αFVH = 100)) does the source give for B2 here?
A: 0.0341

Q: What about the αF6P/αFV of the same protein?
A: 0.000319

Q: What about the αF6P/αFVH of the same protein?
A: 0.000341

Q: How did the αF6P oxidation activity ratio (crude enzyme; CFP-T7-H6 = 100) (relative (CFP-T7-H6 = 100)) turn out when B3 was run?
A: 2

Q: With B4 as the protein, how does the αF6P oxidation activity ratio (crude enzyme; CFP-T7-H2 = 100) (relative (CFP-T7-H2 = 100)) read?
A: 11

Q: With B5 as the protein, how does the αF6P oxidation activity ratio (crude enzyme; CFP-T7-H2 = 100) (relative (CFP-T7-H2 = 100)) read?
A: 21

Q: With B6 as the protein, how does the αF6P oxidation activity (crude enzyme; αFVH oxidation activity = 100) (relative (αFVH = 100)) read?
A: 3

Q: And the αF6P oxidation activity ratio (crude enzyme; CFP-T7-H2 = 100) (relative (CFP-T7-H2 = 100))?
A: 513

Q: And the αF6P/αFV?
A: 0.00347

Q: What about the αF6P/αFVH of the same protein?
A: 0.03

Q: With B7 as the protein, how does the αF6P oxidation activity ratio (crude enzyme; CFP-T7-H6 = 100) (relative (CFP-T7-H6 = 100)) read?
A: 17

Q: B8 was tested. Which αF6P oxidation activity ratio (crude enzyme; CFP-T7-H2 = 100) (relative (CFP-T7-H2 = 100)) did it give?
A: 120
